Measured values as given in the nanobody polyreactivity screen of Harvey et al. (2022).

assay: yeast display, Sf9 membrane polyspecificity reagent, FACS + sequencing; frameworks hold sequencing errors
How it was run: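 Galactose-induced (36–48 hours) yeast carrying a synthetic nanobody display library were exposed to 10% biotinylated, detergent-solubilized Sf9 membrane reagent at 4 °C for 1 hour. FACS followed streptavidin microbead enrichment, using low and high (top ~1%) gates for expression (anti-HA) and reagent binding (streptavidin). Colony PCR, MiSeq 2 × 250 sequencing and CDR-length filtering followed. Labels for polyreactivity reflect the gate of origin.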

Sequence	polyreactivity (PSR sort gate)
QFQLVESGGGLVHAGGSLRLICAASGRILYKYAMGWYRQAPGKERELVAAISGSGGRTYYADSVKGRFTISRDNAKNTVYLQMNSLKPEDTPVYYCAAVHPFRHVMYDYWGQGTQVTVSS	low polyreactivity
QFQLVESGGGLVQAGGRLRLSCAASGRIFQLYTMGWYRQAPGKEREFVASISFITGRTYYADSVKGRFTISRDNAKKTVYLQMNSLKPEDTAVYYCNTRYDGGFDSWGQGTQVTVSS	high polyreactivity
QFQLVESGGGLVQAGGSIRLSCAASGSTFTIYAMGWYRQAPGKERELVAAISGTGGTKYADSVKGRFTISRDNAKNTVYLQMTSLKPEDTAVYYCAARYMLWDGDSWTEFDYWGQGTQVTVSS	low polyreactivity
QFQLVESGGGLVQAGGSLRLRCAASGLIIKKYTMGWYRQAPGKEMELVASISKSGGSTYYADSVKGRFTISRDNAKNTVYLQMNSLKPEDTAVYYCNRVTHYIRFDYWGQGTQVTVSS	low polyreactivity
QFQLVESGGGLVQAGGSLRLSCAASGFIFQEYAMGWYGQAPGKERELVAAITSGGSTNYADSVKGRFTISRDNAKNTVYLQMNSLKPEDTAVYYCNVDSPDYYYDYDYWGHGTQVTVSS	low polyreactivity
QFQLVESGGGLVQAGGSLRLSCAASGFIFRYNAMGWYRQAPGKERELVAAIDSGGSTYYADSVKGRFTISRDNAKNTVDLQMNSLKPEDTAVYYCYAVHEASYSGVDYWGQGTQVTVSS	low polyreactivity
QFQLVESGGGLVQAGGSLRLSCAASGFTFAVYAMGWYRQAPWKERELVAAISRSGTRTYYADSVKGRFTISRDNAKNTVYLQMNSLKPVDTAVYYCAADKYRHGYDYWGQGTQVTVSS	low polyreactivity
QFQLVESGGGLVQAGGSLRLSCAASGGIFDTNAMGWYRQATGKDRELVAAITVRGGSTYYADSVKGRFTISRDNAKNTVYLQMNSLKPEDTAVYYCATRSPKRAAVRYNYWGQGTQVTVSS	high polyreactivity
QFQLVESGGGLVQAGGSLRLSCAASGGIFYTYAMGWYRQAPAKERAFVAAISRSGGRTRYADSVKGRFTISRDNAKNTVYLQMNSLKQEDTAVYYCAARVIGAGLLKYDKWGQGTQVTVSS	high polyreactivity
QFQLVESGGGLVQAGGSLRLSCAASGGTFPYNAMGWYRQAPGKERELVAAISSSGTSTYYADSVKGRFTISRDNAKNTVYLQMNSLKPEDTAVYYCNDYFKRYDYWGQGTQVTVSS	high polyreactivity
QFQLVESGGGLVQAGGSLRLSCAASGGTFYVNDMGWYRQAPGKERELVATITYSGTSTYYADSVKGRFTISRDNAKNTVYLQMNSLKPEDTAVYYCATDVLLYFEPVNLDYWGQGTQVTVSS	low polyreactivity
QFQLVESGGGLVQAGGSLRLSCAASGIIFLENAMGWYRQAPGKEREFVAAISRSGGITYYADSVKGRFTISRDNAKNTVYLQMNSLKPEDTAVYYCAAVGRDRYRHSPQPLYDYWGQGTQVTVSS	low polyreactivity
QFQLVESGGGLVQAGGSLRLSCAASGITFSNYALGWYRQAPGKERELVAAISKRGGSTYYADSVKGRFTISRDNAKTTVDLQMNSLKPEDTAVYYCAADAYNPPYWVDPYDYWGQGTQVTVSS	high polyreactivity
QFQLVESGGGLVQAGGSLRLSCAASGLIFRRYAMGWYRQAPGKEREFVAAISWSGGSTYYADSVKGRFTISRDNAKNSVYLQINSLKPEDTGVSYFAAYDKSLYGSGYDYWGQGTQVTVSP	high polyreactivity
QFQLVESGGGLVQAGGSLRLSCAASGLIFVINAMGWYRQAPGKERELDATISSGVSTNYADSVKGRFTISRDNAKNTVYLQMNSLKPEDTAVYYCNKDGVVEVRFTVRQEYDYWGQGTQVTVSS	low polyreactivity
QFQLVESGGGLVQAGGSLRLSCAASGLTFSWYVMGWYRQAPGKERELVAAITNGGNTNYADSVKGRFTISRDNAKNTVYLQMNCLKPEDTAVYYCAARDPYTWPRSGSGYYEFDYWVQGTQVTVSS	low polyreactivity
QFQLVESGGGLVQAGGSLRLSCAASGNTFYGYARGWYRQAPGKDRELVATMTGSGGDTYYADSVKGRFTISRDNANYTVYLPMNSLKPEDTAVYYCNAVEYYGGYPGTDYSYLAYNYWGQGTKVTVSS	low polyreactivity
QFQLVESGGGLVQAGGSLRLSCAASGRIFGIYAMGWDRQAPGKESELVATITDSDDSTYYADSVKGRFTISRDNAKNTVYLQMNSLKPEDTAVYYCATAFSYGGGAYDYWGQGTQVTVSS	low polyreactivity
QFQLVESGGGLVQAGGSLRLSCAASGRIFGRYSRGLYRQAPGKERELVAAITWLGTTYYADSVKGRFTISRDNAKNTVYLQMNSLKPEDTAVYYCATVVLLRIWGGYWGQGTQVTVSS	high polyreactivity
QFQLVESGGGLVQAGGSLRLSCAASGRIFGVNAMGWYRPAPGKERELVAAISYRGGHTYADSVKGRFTISRDNAKNTVYLQMNSLKPEDTAVYYCAARNRSSTGLGSRYGYWGQGTQVTVSS	high polyreactivity
QFQLVESGGGLVQAGGSLRLSCAASGRIFPGYAMGWYRQAPGKERELVAAISERGGSTYYADSVKGRFTISRDHAKNTVYLQMNSLKPEDTAVYYCAAIWRGGYNYWGQGTQVTVSS	low polyreactivity
QFQLVESGGGLVQAGGSLRLSCAASGRIFPQYAMGWSRQATGKERELVAGITSVGSTYYADSVKGRFTISRDNAKNTVYLQMNSLKPEDTAVYYCAAFYRGGDYWGQGTQVTVSS	high polyreactivity

Sequence	polyreactivity (PSR sort gate)
QFQLVESGGGLVQAGGSLRLSCAASGRIFRGNAMGWYRQAPGKERELVAAILTGVSTYYADSVKGRFTISRDNAKNTVYLQMNSLKPEDTAVYYCAAERPSRRSGYEYWGQGTQVTVSS	low polyreactivity
QFQLVESGGGLVQAGGSLRLSCAASGRIFYSNAMGWYRQAPGKERELVAAISSSGGITYYADSVKGRFTISRDNAKNTVNLQMNSLKPEDSAVYYCAVDSRHYIRAFDHWGQGTQVTVSS	low polyreactivity
QFQLVESGGGLVQAGGSLRLSCAASGRTFIYYSMGWYRQAPGKERELVAAITRSGGSTNYADSVKGRFTISRDNSKNTVYIQMNSLKPEDTAVYYCAARFYGRRCIYGYWGQGTQVTVSS	high polyreactivity
QFQLVESGGGLVQAGGSLRLSCAASGRTFQHNVMGWYIQAPGKERELVASITCRGGSTYYADSVKGRFTISRDNAKNTVYLQMNSLKPEDTAVYYCAARNGFRRVRFDYWGQGTQVTVSS	low polyreactivity
QFQLVESGGGLVQAGGSLRLSCAASGRTFTYNAMGWYRQAPGKERELVAAINSGGSTNYADSVKGRFTISRDNAKNTVYLQMNSLKPEDTAVYYCNAGFGFGSSRYGTRYYYWGQGTQVTVSS	low polyreactivity
QFQLVESGGGLVQAGGSLRLSCAASGRTFVYYVMGWYRPAPGKERELVAAISRRGGSTYYADSVKGRFTISRDNAKNTVYLQMNSLKPEDTAVYYCAAQYYYAREDYWGQGTQVTVSS	high polyreactivity
QFQLVESGGGLVQAGGSLRLSCAASGSIFDSYYMGWYRQAPGKEREMVAAITSGGSTNYADSVKGRFTISRDNAKNTVYLQMNSLKPEDTAVYYCAAYYWYPVYYGYEYWGQGTQVTVSS	low polyreactivity
QFQLVESGGGLVQAGGSLRLSCAASGSIFHPYTMGWYRPAPGKERELVAAISWSGGNTNYADSVKGRFTISRDNAKNTVYLQMNSLKPEDTAVYYCNKATNLSGGYDSWGQGTQVTVSS	low polyreactivity
QFQLVESGGGLVQAGGSLRLSCAASGSIFKYYTMGRYRQAHGKEMELVAYISSGGSTKYADSVKGRFTISRDNAKNTVYLQMNSLKPEDTAVYYCAKRYYYFYPDYDYWGQGTQVTVSS	high polyreactivity
QFQLVESGGGLVQAGGSLRLSCAASGSIFPGYAMGWYRQAPGKERELVAAITVSGVSTYYADSVKGRFTISRDNEKNTVYLQMNSLKPEDTAVYYCARDNWQLYPSTWYDYWGQGTQVNVSS	high polyreactivity
QFQLVESGGGLVQAGGSLRLSCAASGSIFYGYAMGWYRQAPGKERELVARITGSGGDTSYADSVKGRFTISRDNAKNTVYLQMNSLKPEDTAVYYCNTDLYITYTLYTGSEYDYWGQGTQVTVSS	low polyreactivity
QFQLVESGGGLVQAGGSLRLSCAASGSIFYTYTMGWYRQAPGKDRVLVAAISFSDGDTYYADSVKGRFTISRDNAKNTVYLQMNSLKPEDTAVYYSNAYVYLPNYPYDYWGQGTQVTVSS	low polyreactivity
QFQLVESGGGLVQAGGSLRLSCAASGSIITPYAMGWYRPAPGKERELVAAISGRGGSTYYADSVKGRFTISRDNAKNTVYLQMNSLKPEDTAVYYCAARQYFRWYGWSMDYWGQGTQVTVSS	high polyreactivity
QFQLVESGGGLVQAGGSLRLSCAASGSTFDTYAMGWYRQAPGKERDLFAAISGSGVRTYYADSVKGRFTISRDNAKNTVYLQMNSLKPEDTAVYYSAAAGSGYGGKQFDHGFNYWGQGTQVTVSS	high polyreactivity
QFQLVESGGGLVQAGGSLRLSCAASGSTFPRYAMGWYRPAPGKERELVAAISRSGTSTYYADSVKGRFTISRDNAKNTVYLQMNSLKPEDTAVYYCAAEYHPRVLYPNWYDYWGQGTQVTVSS	low polyreactivity
QFQLVESGGGLVQAGGSLRLSCAASGSTFRHNAMGWYRQASGKEREWVATIRTSGGTTYYADSVKGRFTISRDNAKNTVYLQMNSLKPEDTAFYYCAKDALFIDGGGGYDYWGQGTQVTVSS	low polyreactivity
QFQLVESGGGLVQAGGSLRLSCAASGSTLELNAMGWYIQAPGKERELVAAITSSGGRTYYADSVKGRFTISRDNAKNTVYLQMNSLKPEDTAVYYCAAEPGQHRVVDRYDYWGQGTQVTVSS	low polyreactivity
QFQLVESGGGLVQAGGSLRLSCAASGVIFEWYTMGWYRQAPGKERELVARISSDGSTTYADSVKGRFTLSRDNAKNTVYFEMNSLKREDTAVYYCAADVSYPGLKYIFDYWGQGTLVTVSS	low polyreactivity
QFQLVESGGGLVQAGGSLRLSCAASGYIFLRNAMGCYRQAHGKERELVAAIRLTGGSTYYADSVKGRFTISRDNAKNTVYLQMNSLKPEDTAVYYCAKRSYTGYEYWGQGTQVTVSS	low polyreactivity
QFQLVESGGGLVQAGGSLRLSCAASVSTVVIYDMGWYRQAPGKERELVAAISYSGGSTYYADSVKGRFTITRDNAKNTVYLQMNSLKPEDTAVYYCNAGVLVLLYAYLPSDLEYWGQGTQVTVSS	low polyreactivity
QFQLVESGGGLVQAGGSLRLSCAPSGSTFVSYSMAWYRQEPGKERQFVAAITWSGGSTYYADSVKGRFTISRDNANNTVYLQMNSLKPEDTAVYYCARPYRGSPRYYYWGQGTQVTLSS	high polyreactivity
